Source: PMC3462211, “3D Domain Swapping Causes Extensive Multimerisation of Human Interleukin-10 When Expressed In Planta” (PLoS ONE, 2012)

Assays:
[1] = target: human IL-10 fused to the C-terminus of constant domains 2 and 3 of human immunoglobulin A2m1 (Fcα-hIL-10), plant produced (human) (UniProt P22301); test: non-reducing SDS-PAGE with Western blot; soluble plant proteins (crude leaf extract, desalted on G25 Sephadex, filter sterilised) separated under non-reducing conditions on a NuPAGE 12% Bis-Tris gel; detected with antibodies against hIL-10 or IgA
[2] = target: human IL-10^mono fused to the C-terminus of constant domains 2 and 3 of human immunoglobulin A2m1 (Fcα-hIL-10^mono), plant produced (human) (UniProt P22301); test: as above
[3] = target: the molecule itself; test: as above
[4] = target: the molecule itself; test: non-reducing SDS-PAGE with Western blot; 50 ng recombinant E. coli produced hIL-10 (R&D Systems) separated under non-reducing conditions on a NuPAGE 12% Bis-Tris gel; detected with an antibody against hIL-10

With “human IL-10 fused to the C-terminus of constant domains 2 and 3 of human immunoglobulin A2m1 (Fcα-hIL-10), plant produced (from UniProt P22301 19-178) (Fc fusion)” the stoichiometry N [1] was 2.

Molecule “human IL-10^mono fused to the C-terminus of constant domains 2 and 3 of human immunoglobulin A2m1 (Fcα-hIL-10^mono), plant produced (from UniProt P22301 19-178) (Fc fusion)” has a stoichiometry N [2] of 2.

B1: plant produced human interleukin-10 (natural protein, UniProt P22301 19-178, looked up)
chain: SPGQGTQSENSCTHFPGNLPNMLRDLRDAFSRVKTFFQMKDQLDNLLLKESLLEDFKGYLGCQALSEMIQFYLEEVMPQAENQDPDIKAHVNSLGENLKTLRLRLRRCHRFLPCENKSKAVEQVKNAFNKLQEKGIYKAMSEFDIFINYIEAYMTMKIRN
notes: signal peptide in the construct; human interleukin-10, complete native open reading frame (178 amino acids including the N-terminal signal peptide); the NcoI site adds two extra amino acids to the N-terminus of the signal peptide; Secreted through its own signal peptide; also called hIL-10; human IL-10; source: Nicotiana benthamiana leaves, agro-infiltrated (transient), in desalted crude extract
With B1 the “stoichiometry N” value [3] was at least 2.

B2: recombinant E. coli produced human IL-10 (natural protein, UniProt P22301 19-178, looked up)
chain: SPGQGTQSENSCTHFPGNLPNMLRDLRDAFSRVKTFFQMKDQLDNLLLKESLLEDFKGYLGCQALSEMIQFYLEEVMPQAENQDPDIKAHVNSLGENLKTLRLRLRRCHRFLPCENKSKAVEQVKNAFNKLQEKGIYKAMSEFDIFINYIEAYMTMKIRN
notes: human interleukin-10, recombinant, E. coli produced, 18 kDa on the blot; also called r hIL-10; E. coli produced hIL-10; source: bought: R&D Systems (recombinant, E. coli produced)
B2 was tested, and the “stoichiometry N” value [4] was at least 2.
